Data from PMC7041945, “Misfolded proteins bind and activate death receptor 5 to trigger apoptosis during unresolved endoplasmic reticulum stress” (eLife, 2020).

System: CHOP, BiP, and DR5 mRNA in HCT116 cells
Assay: qPCR of UPR target transcripts (CHOP, BiP, DR5)
Assay type: cell-based, Homo sapiens
Conditions: HCT116, transfected 24 hr
Description: Cells were grown in 6-well plates and harvested with 0.5 ml of TRIzol reagent (Life Technologies) per manufacturer’s protocol to extract RNA. For cDNA synthesis, 500 ng of total RNA was reverse transcribed with 2 μl of the SuperScript VILO master mix (Life Technologies # 11755050) in a total reaction volume of 10 μl following the manufacturer’s protocol for reaction temperature and duration. The reverse transcription product was diluted to 200 μl with 10 mM Tris-HCl pH 8.2 and used at 1:100 dilution for subsequent RT-PCR reactions.
PCR samples were prepared as described by manufacturer’s protocols from iQ SYBR Green Supermix (BioRad #17088800).
For each experiment, qRT-PCR reactions were set up in triplicate and run using a CFX96 Real Time System (Bio-Rad). Quantitation cycles were determined with CFX Manager 3.0 software (Bio-Rad) and then normalized to GAPDH as an internal control.

B1: MPZ-GFP: myelin protein zero with a C-terminal monomeric EGFP, expressed from plasmid (protein)
chain: IVVYTDREVHGAVGSRVTLHCSFWSSEWVSDDISFTWRYQPEGGRDAISIFHYAKGQPYIDEVGTFKERIQWVGDPRWKDGSIVIHNLDYSDNGTFTCDVKNPPDIVGKTSQVTLYVFEKVPTRYGVVLGAVIGGVLGVVLLLLLLFYVVRYCWLRRQAALQRRLSAMEKGKLHKPGKDASKRGRQTPVLYAMLDHSRSTKAVSEKKAKGLGESRKDKK
modifications: left off: monomeric EGFP, C-terminal, kept
notes: myelin protein zero with a C-terminal monomeric EGFP, expressed from plasmid
UPR target gene transcription: dose-dependent upregulation of the UPR transcriptional target genes CHOP, BiP, and DR5
